Where two headings read alike, the source gives them in different places.
What was measured:
[1] = target: zinc uptake regulator (Zur) from Xanthomonas campestris pv. campestris (XcZur) (Xanthomonas campestris pv. campestris strain 8004); assay: AUC
[2] = target: zinc uptake regulator (Zur) from Xanthomonas campestris pv. campestris (XcZur) (Xanthomonas campestris pv. campestris strain 8004); assay: AUC; remark: listed apart in the source
XcZur [3] = target: T1, XcZur (Xanthomonas campestris pv. campestris …, UniProt Q4UWS5 1-172); assay: BLI
T1 sequence: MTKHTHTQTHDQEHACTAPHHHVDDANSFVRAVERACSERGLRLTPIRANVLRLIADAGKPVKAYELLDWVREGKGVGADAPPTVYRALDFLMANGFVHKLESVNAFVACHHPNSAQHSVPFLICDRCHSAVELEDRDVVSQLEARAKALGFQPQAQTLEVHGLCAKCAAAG

crystal structure = target: the molecule itself; assay: crystal structure
XcZur [4] = target: T1, XcZur; assay: EMSA
XcZur [5] = target: T1, XcZur; assay: EMSA; remark: listed apart in the source

With “zinc uptake regulator (Zur) from Xanthomonas campestris pv. campestris (XcZur) (natural protein)” the percent as dimers [1] was 32.9%, the percent as monomers [1] was 60.5% and the percent as trimers [1] was 5.8%. The stoichiometry N [1] was 2, the percent as dimers [2] was 60.3% and the percent as monomers [2] was 28.9%. For the same molecule, the percent as tetramers [2] was 4.9% and the stoichiometry N [2] was 2.

B1: P3788-Biotin (dsDNA)
DNA 1: ATTGATACGTTATCACATTGCGCCCCGCGCT
DNA 2: AGCGCGGGGCGCAATGTGATAACGTATCAAT
With B1 the Kd (XcZur [3]) was roughly 0.063 µM.

B2: P0267-Biotin (dsDNA)
DNA 1: GGCGAGTTGTTATACAGTAACATTTCTAG
DNA 2: CTAGAAATGTTACTGTATAACAACTCGCC
For B2, the Kd (XcZur [3]) was roughly 0.022 µM.

B3: N-terminal extension deleted XcZur (T17-G172) (domain or fragment)
chain: TAPHHHVDDANSFVRAVERACSERGLRLTPIRANVLRLIADAGKPVKAYELLDWVREGKGVGADAPPTVYRALDFLMANGFVHKLESVNAFVACHHPNSAQHSVPFLICDRCHSAVELEDRDVVSQLEARAKALGFQPQAQTLEVHGLCAKCAAAG
B3: binds (crystal structure).

B4: P2976 (dsDNA)
DNA 1: TTAGGGCCACGCGGTTGCGGAGACTATTACACCGGCGCGTGATGAGATCACATCACGTG
DNA 2: CACGTGATGTGATCTCATCACGCGCCGGTGTAATAGTCTCCGCAACCGCGTGGCCCTAA
B4: no binding (XcZur [4]).

B5: EcZur-box (dsDNA)
DNA 1: AGAAGTGTGATATTATAACATTTCATGACTATG
DNA 2: CATAGTCATGAAATGTTATAATATCACACTTCT
B5: binds (XcZur [5]).

B6: P2472-Biotin (dsDNA)
DNA 1: AAGTGTTATAAAGTAACACTAGTCGCG
DNA 2: CGCGACTAGTGTTACTTTATAACACTT
B6 was tested, and the Kd (XcZur [3]) was roughly 0.038 µM.
